Patent US20090226429A1 (Human Genome Sciences, published 2009)
Changes are numbered by the printed parent chain.

T1: TR5 (human, UniProt O14798 30-242)
T1 construct: Antigen coated in the specificity phage ELISA; also called TRAIL-R3; DcR1
T1 chain: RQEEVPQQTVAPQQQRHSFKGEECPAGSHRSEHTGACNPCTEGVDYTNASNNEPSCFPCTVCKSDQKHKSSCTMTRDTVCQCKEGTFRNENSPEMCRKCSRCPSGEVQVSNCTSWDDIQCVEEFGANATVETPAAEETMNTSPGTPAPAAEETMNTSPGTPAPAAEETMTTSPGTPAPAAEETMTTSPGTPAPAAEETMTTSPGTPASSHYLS

T2: TR10 (human, UniProt Q9UBN6 56-204, limits assumed)
T2 construct: Antigen coated in the specificity phage ELISA; also called TRAIL-R4; DcR2
T2 sequence: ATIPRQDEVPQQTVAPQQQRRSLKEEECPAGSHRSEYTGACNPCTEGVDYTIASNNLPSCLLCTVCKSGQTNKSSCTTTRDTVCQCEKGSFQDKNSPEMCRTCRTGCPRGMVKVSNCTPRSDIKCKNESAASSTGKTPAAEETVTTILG

T3: TR4:Fc receptor (human, UniProt O00220 109-240)
T3 construct: also called TR4-Fc fusion protein; not shown: Fc region
T3 chain: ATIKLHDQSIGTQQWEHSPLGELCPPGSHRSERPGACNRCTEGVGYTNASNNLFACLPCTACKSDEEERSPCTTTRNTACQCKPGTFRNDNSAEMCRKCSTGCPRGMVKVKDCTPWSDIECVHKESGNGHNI

B1: scFv T1014F08 (scFv)
scFv: EVQLVQSGAEVKKPGASVKLSCRVSGDTFTAYFIHWVRQAPGQGPEWMGWFNPISGTAGSAARFRGRVAMTRDTSISTAYMELNRLTFDDTAVYYCARQHRGNTFDPWGKGTLVTVSSGGGGSGGGGSGGGGSALPVLTQPPSASGSPGQSVTISCTGTSSDVGGYKYVSWYQQHPGKAPKLMIYEVSMRPSGVPDRFSGSKSGNTASLTVSGLQAEDEADYYCASYAGSNNWVFGGGTKLTVLG
B2: scFv T1014B11 (scFv)
scFv: EVQLVQSGAEVKKPGASVKVSCKISGDSFTAYFIHWLRQAPGEGLEWMGWFNPISGTAGSPQKFHGRVAMTRDTSISTAYMELTRLASDDTAIYYCARQHHSNTFDPWGQGTLVTVSSGGGGSGGGGSGGGGSAQSALTQPASVSGSPGQSITISCTGTNSDVGGYNYVSWYQQHPGKAPKLMIYEVNNRPSGVSNRFSGSKSGNTASLTISGLQADDEADYYCSSYTTSNTWVFGGGTKLTVLG
B3: scFv T1014A04 (scFv)
scFv: EVQLVQSGADVKRPGASVKVSCKISGDSFNAYFIHWVRQAPGQGLEWMGWFNPDSGTADSAQKFHGRVTMTRDTSSSTAFLELSRLRSDDTAVYYCVRQHRGNTFAPWGRGTMVTVSSGGGGSGGGGSGGGGSAQSVLTQPPSASGSPGQSVTISCTGTTSDVGGYNYVSWYQQHPGKAPKLMIYGVNQRPSGVPDRFSGSKSGNTASLTVSGLQAEDEADYYCSSYAGSNNWVFGGGTKLTVLG
B4: scFv T1014G04 (scFv)
scFv: EVQLVQSGADVKRPGASVKVSCKISGDSFTAYFIHWVRQAPGQGLEWMGWFNPDSGTADSAQKFHGRVTMTRDTSSSTAFLELSRLRSDDTAVYYCVRQHRGNTFAPWGRGTLVTVSSGGGGSGGGGSGGGGSAQPVLTQPPSASGSPGQSVTISCTGTSSDVGSYEYVSWYQQHPGKAPRLMISEVNKRPSGVPNRFSGSKSGNTASLTVSGLQADDEADYYCSSYAGSNNWVFGGGTKVTVLG
B5: scFv T1014G03 (scFv)
scFv: EVQLVQSGAEVKMPGASVKLSCRVSGDTFTAYFIHWVRQAPGQGLEWMGWFNPISGTAGSAEKFRGRVAMTRDTSISTAYMELNRLTFDDTAVYYCARQHRGNTFDPWGQGTLVTVSSGGGGSGGGGSGGGGSAQSALTQPASVSGSPGQSITISCTGTSSDIGAYKYVSWYQQHPGKAPKLVIYEVSNRPSGVSSRFSGSKSGQTASLTISGLQADDEADYYCNSYQGYNTWVFGGGTKVTVLG
B6: IgG1 antibody comprising the VH and VL domains of the T1014G03 scFv (antibody, V domains shown)
VH: EVQLVQSGAEVKMPGASVKLSCRVSGDTFTAYFIHWVRQAPGQGLEWMGWFNPISGTAGSAEKFRGRVAMTRDTSISTAYMELNRLTFDDTAVYYCARQHRGNTFDPWGQGTLVTVSS
VL: QSALTQPASVSGSPGQSITISCTGTSSDIGAYKYVSWYQQHPGKAPKLVIYEVSNRPSGVSSRFSGSKSGQTASLTISGLQADDEADYYCNSYQGYNTWVFGGGTKVTVLG
notes: Whole IgG1
B7: IgG1 antibody comprising the VH and VL domains of the T1014A04 scFv (antibody, V domains shown)
VH: EVQLVQSGADVKRPGASVKVSCKISGDSFNAYFIHWVRQAPGQGLEWMGWFNPDSGTADSAQKFHGRVTMTRDTSSSTAFLELSRLRSDDTAVYYCVRQHRGNTFAPWGRGTMVTVSS
VL: QSVLTQPPSASGSPGQSVTISCTGTTSDVGGYNYVSWYQQHPGKAPKLMIYGVNQRPSGVPDRFSGSKSGNTASLTVSGLQAEDEADYYCSSYAGSNNWVFGGGTKLTVLG
notes: Whole IgG1; also called IgG1 format of T1014A04
B8: IgG1 antibody comprising the VH and VL domains of the T1014G04 scFv (antibody, V domains shown)
VH: B7 VH with N30T, M113L
VL: QPVLTQPPSASGSPGQSVTISCTGTSSDVGSYEYVSWYQQHPGKAPRLMISEVNKRPSGVPNRFSGSKSGNTASLTVSGLQADDEADYYCSSYAGSNNWVFGGGTKVTVLG
notes: Whole IgG1; also called T14G04

Target: T4, TR7 (human, UniProt O14763 52-184, limits assumed)
T4 construct: Antigen coated in the specificity phage ELISA; also called TRAIL-R2; DR5
Experiment: specificity phage ELISA, antigen coated at 1 ug/ml
Method: (§1) Flexible 96-well plates (Falcon) were coated overnight at 4° C. with each antigen (1 μg/ml). All antigens were coated in PBS. After coating, the solutions were removed from the wells, and the plates were blocked for 1 hour at room temperature in MPBS. The plates were washed 3 times with PBS and then 50 μl of pre-blocked phage was added to each well. The plates were incubated at room temperature for 1 hour and then washed with 3 changes of PBST followed by 3 changes of PBS.
(§2) To each well, 50 μl of an anti-M13-HRP conjugate (Pharmacia) at a 1 in 5000 dilution in MPBS was added and the plates incubated at room temperature for 1 hour. Each plate was washed three times with PBST followed by three times with PBS.
(§3) Fifty μl of TMB substrate was then added to each well, and incubated at room temperature for 30 minutes or until colour development. The reaction was stopped by the addition of 25 μl of 0.5 M H₂SO₄. The signal generated was measured by reading the absorbance at 450 nm (A₄₅₀) using a microtitre plate reader (Bio-Rad 3550).

binding result	Binder
no binding	B1
no binding	B2
no binding	B3
no binding	B4
no binding	B5

Target: T1, TR5
Experiment: specificity phage ELISA, antigen coated at 1 ug/ml
Method: as §1, §2, §3

binding result	Binder
no binding	B1
no binding	B2
no binding	B3
no binding	B4
no binding	B5

Target: T2, TR10
Experiment: specificity phage ELISA, antigen coated at 1 ug/ml
Method: as §1, §2, §3

binding result	Binder
no binding	B1
no binding	B2
no binding	B3
no binding	B4
no binding	B5

Target: T5, BLyS (human, UniProt Q9Y275 134-285, limits assumed)
T5 construct: Unrelated control antigen in the specificity phage ELISA
Experiment: specificity phage ELISA, antigen coated at 1 ug/ml
Method: as §1, §2, §3

binding result	Binder
no binding	B1
no binding	B2
no binding	B3
no binding	B4
no binding	B5

Target: T3, TR4:Fc receptor
Experiment: SPR (BIAcore 2000), TR4:Fc amine-coupled on CM5 chip, IgG1 as analyte, double reference subtraction, 1:1 Langmuir fit, 25 C
Method: The optimal pH for this coupling was analyzed using preconcentration experiments ranging from pH 4-7 and was determined to be pH 4.0 for both the TR4 and the TR2 receptor. Amine coupling was used to covalently bind each receptor (fc) to the dextran matrix on the CM5 sensor chip. The immobilization experiment was performed using the manual injection mode. The entire immobilization experiment was performed at 5 μL/min. A 3-minute injection of EDC/NHS (1:1) was applied to each flow cell to active esters. A target level of ˜200RU was set as the goal for all each flow cell. Fc-fusion receptors, TR4 and TR2 at 5 μg/mL, were immobilized onto individual flow cells of a sensor chip. The amount applied varied from 8-14 μL. A 3-minute ethanolamine injection completed the immobilization experiment by inactivating the esters.
The kinetics cycles were performed as follows: The flow rate for the entire cycle was 25 μL/minute with the flow path including both the control (TR2) and experimental (TR4) flow cell at all times. A 1-minute buffer injection was applied to stabilize the baseline. The purified antibody (IgG1 antibody comprising the VH and VL domains of each of the T1014A04, T1014G03, T1014F08, and T14G04 scFvs) was diluted from 10 μg/mL (65 nM) to 0.115 μg/mL (0.75 nM) in running buffer and tested in duplicate. Each concentration was in contact with the control (TR2) and the experimental (TR4) flow cell during a 4-minute association and a 10-minute dissociation phase. Regeneration was performed using 25 mM NaOH from 5-12 μL depending on the sample concentration.
A double-reference subtraction was performed, which refers to the control flow cell subtraction for every cycle, in addition to a buffer cycle subtraction. The 1:1 Langmuir model was used for all evaluation fitting.

Kd [nM]	Binder
0.554	B6
0.468	B7
0.194	B8
